Measurements taken from patent US20260242735A1 (UNIVERSIT T BASEL, published 2026).
Each block holds one binder with its values, some of them ahead of it.

What was measured:
human wild-type CD33 = target: T1, human wild-type CD33 (human, UniProt P20138 18-364); assay: flow cytometry, Fab at 0.25 ug/ml on HEK293-T cells expressing CD33 against vector alone
T1 construct: also called SIGLEC3; P67

[1] = target: CD33 variant F21V (recombinant, biotinylated) (human, UniProt P20138 22-259, biotinylated with EZ-Link Sulfo-NHS-LC-Biotin (sites not given)); assay: BLI (Octet R8), avidity format: biotinylated CD33 on streptavidin sensor, Refmab #1 as analyte at 300 or 500 nM;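 also: sensorgrams recorded with a 300 s analyte association phase followed by a 900 s dissociation phase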
Chain of CD33 variant F21V (recombinant, biotinylated) (P20138 other isoform, or with tags, fused parts or gaps F21V F21V): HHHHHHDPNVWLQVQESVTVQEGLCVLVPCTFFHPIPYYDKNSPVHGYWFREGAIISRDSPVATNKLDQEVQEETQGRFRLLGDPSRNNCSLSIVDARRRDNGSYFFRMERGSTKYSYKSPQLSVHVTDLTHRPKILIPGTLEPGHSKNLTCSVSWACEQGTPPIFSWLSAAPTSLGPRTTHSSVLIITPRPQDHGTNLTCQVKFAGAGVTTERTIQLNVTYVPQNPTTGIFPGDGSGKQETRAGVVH

[2] = target: CD33 variant F21L (recombinant, biotinylated) (human, UniProt P20138 22-259, biotinylated with EZ-Link Sulfo-NHS-LC-Biotin (sites not given)); assay: as above
[3] = target: CD33 variant F21I (recombinant, biotinylated) (human, UniProt P20138 22-259, biotinylated with EZ-Link Sulfo-NHS-LC-Biotin (sites not given)); assay: as above
Chain of CD33 variant F21I (recombinant, biotinylated) (P20138 other isoform, or with tags, fused parts or gaps F21I F21I): as the sequence (P20138 other isoform, or with tags, fused parts or gaps F21V F21V) above, with V10I counted along it

[4] = target: CD33 variant F21S (recombinant, biotinylated) (human, UniProt P20138 22-259, biotinylated with EZ-Link Sulfo-NHS-LC-Biotin (sites not given)); assay: as above
Chain of CD33 variant F21S (recombinant, biotinylated) (P20138 other isoform, or with tags, fused parts or gaps F21S F21S): as the sequence (P20138 other isoform, or with tags, fused parts or gaps F21V F21V) above, with V10S counted along it

[5] = target: CD33 variant F21M (recombinant, biotinylated) (human, UniProt P20138 22-259, biotinylated with EZ-Link Sulfo-NHS-LC-Biotin (sites not given)); assay: as above
Chain of CD33 variant F21M (recombinant, biotinylated) (P20138 other isoform, or with tags, fused parts or gaps F21M F21M): as the sequence (P20138 other isoform, or with tags, fused parts or gaps F21V F21V) above, with V10M counted along it

[6] = target: CD33 variant F21N (recombinant, biotinylated) (human, UniProt P20138 22-259, biotinylated with EZ-Link Sulfo-NHS-LC-Biotin (sites not given)); assay: as above
Chain of CD33 variant F21N (recombinant, biotinylated) (P20138 other isoform, or with tags, fused parts or gaps F21N F21N): as the sequence (P20138 other isoform, or with tags, fused parts or gaps F21V F21V) above, with V10N counted along it

[7] = target: CD33 variant F21Q (recombinant, biotinylated) (human, UniProt P20138 22-259, biotinylated with EZ-Link Sulfo-NHS-LC-Biotin (sites not given)); assay: as above
Chain of CD33 variant F21Q (recombinant, biotinylated) (P20138 other isoform, or with tags, fused parts or gaps F21Q F21Q): as the sequence (P20138 other isoform, or with tags, fused parts or gaps F21V F21V) above, with V10Q counted along it

[8] = target: CD33 variant F21H (recombinant, biotinylated) (human, UniProt P20138 22-259, biotinylated with EZ-Link Sulfo-NHS-LC-Biotin (sites not given)); assay: as above
Chain of CD33 variant F21H (recombinant, biotinylated) (P20138 other isoform, or with tags, fused parts or gaps F21H F21H): as the sequence (P20138 other isoform, or with tags, fused parts or gaps F21V F21V) above, with V10H counted along it

[9] = target: CD33 variant W22T (recombinant, biotinylated) (human, UniProt P20138 18-259, biotinylated with EZ-Link Sulfo-NHS-LC-Biotin (sites not given)); assay: as above
[10] = target: CD33 variant W22E (recombinant, biotinylated) (human, UniProt P20138 18-259, biotinylated with EZ-Link Sulfo-NHS-LC-Biotin (sites not given)); assay: as above
Chain of CD33 variant W22E (recombinant, biotinylated) (P20138 other isoform, or with tags, fused parts or gaps W22E W22E): as the sequence (P20138 other isoform, or with tags, fused parts or gaps F21V F21V) above, with V10F, W11E counted along it

[11] = target: CD33 variant W22R (recombinant, biotinylated) (human, UniProt P20138 18-259, biotinylated with EZ-Link Sulfo-NHS-LC-Biotin (sites not given)); assay: as above
[12] = target: CD33 variant W22D (recombinant, biotinylated) (human, UniProt P20138 18-259, biotinylated with EZ-Link Sulfo-NHS-LC-Biotin (sites not given)); assay: as above
Chain of CD33 variant W22D (recombinant, biotinylated) (P20138 other isoform, or with tags, fused parts or gaps W22D W22D): as the sequence (P20138 other isoform, or with tags, fused parts or gaps F21V F21V) above, with V10F, W11D counted along it

[13] = target: CD33 variant W22K (recombinant, biotinylated) (human, UniProt P20138 18-259, biotinylated with EZ-Link Sulfo-NHS-LC-Biotin (sites not given)); assay: as above
[14] = target: CD33 variant F44P (recombinant, biotinylated) (human, UniProt P20138 18-259, biotinylated with EZ-Link Sulfo-NHS-LC-Biotin (sites not given)); assay: as above
Chain of CD33 variant F44P (recombinant, biotinylated) (P20138 other isoform, or with tags, fused parts or gaps F44P F44P): as the sequence (P20138 other isoform, or with tags, fused parts or gaps F21V F21V) above, with V10F, F33P counted along it

[15] = target: CD33 variant Y50D (recombinant, biotinylated) (human, UniProt P20138 18-259, biotinylated with EZ-Link Sulfo-NHS-LC-Biotin (sites not given)); assay: as above
Chain of CD33 variant Y50D (recombinant, biotinylated) (P20138 other isoform, or with tags, fused parts or gaps Y50D Y50D): as the sequence (P20138 other isoform, or with tags, fused parts or gaps F21V F21V) above, with V10F, Y39D counted along it

[16] = target: CD33 variant Y50R (recombinant, biotinylated) (human, UniProt P20138 18-259, biotinylated with EZ-Link Sulfo-NHS-LC-Biotin (sites not given)); assay: as above
Chain of CD33 variant Y50R (recombinant, biotinylated) (P20138 other isoform, or with tags, fused parts or gaps Y50R Y50R): as the sequence (P20138 other isoform, or with tags, fused parts or gaps F21V F21V) above, with V10F, Y39R counted along it

[17] = target: CD33 variant Y50K (recombinant, biotinylated) (human, UniProt P20138 18-259, biotinylated with EZ-Link Sulfo-NHS-LC-Biotin (sites not given)); assay: as above
[18] = target: CD33 double variant Y50H_H49H (recombinant, biotinylated) (human, UniProt P20138 18-259, biotinylated with EZ-Link Sulfo-NHS-LC-Biotin (sites not given)); assay: as above
[19] = target: T2, CD33 wild type (recombinant, biotinylated) (human, UniProt P20138 18-259, biotinylated with EZ-Link Sulfo-NHS-LC-Biotin (sites not given)); assay: as above
T2 construct: also called WT; CD33 wt
T2 sequence (P20138 other isoform, or with tags, fused parts or gaps): as the sequence (P20138 other isoform, or with tags, fused parts or gaps F21V F21V) above, with V10F counted along it

[20] = target: CD33 variant N20G (recombinant, biotinylated) (human, UniProt P20138 21-259, biotinylated with EZ-Link Sulfo-NHS-LC-Biotin (sites not given)); assay: as above
[21] = target: CD33 variant N20E (recombinant, biotinylated) (human, UniProt P20138 21-259, biotinylated with EZ-Link Sulfo-NHS-LC-Biotin (sites not given)); assay: as above
Chain of CD33 variant N20E (recombinant, biotinylated) (P20138 other isoform, or with tags, fused parts or gaps N20E N20E): as the sequence (P20138 other isoform, or with tags, fused parts or gaps F21V F21V) above, with N9E, V10F counted along it

[22] = target: CD33 variant N20K (recombinant, biotinylated) (human, UniProt P20138 21-259, biotinylated with EZ-Link Sulfo-NHS-LC-Biotin (sites not given)); assay: as above
Chain of CD33 variant N20K (recombinant, biotinylated) (P20138 other isoform, or with tags, fused parts or gaps N20K N20K): as the sequence (P20138 other isoform, or with tags, fused parts or gaps F21V F21V) above, with N9K, V10F counted along it

[23] = target: CD33 variant N20V (recombinant, biotinylated) (human, UniProt P20138 21-259, biotinylated with EZ-Link Sulfo-NHS-LC-Biotin (sites not given)); assay: as above
Chain of CD33 variant N20V (recombinant, biotinylated) (P20138 other isoform, or with tags, fused parts or gaps N20V N20V): as the sequence (P20138 other isoform, or with tags, fused parts or gaps F21V F21V) above, with N9V, V10F counted along it

[24] = target: CD33 variant N20H (recombinant, biotinylated) (human, UniProt P20138 21-259, biotinylated with EZ-Link Sulfo-NHS-LC-Biotin (sites not given)); assay: as above
Chain of CD33 variant N20H (recombinant, biotinylated) (P20138 other isoform, or with tags, fused parts or gaps N20H N20H): as the sequence (P20138 other isoform, or with tags, fused parts or gaps F21V F21V) above, with N9H, V10F counted along it

T1 sequence (P20138 18-364 limits assumed): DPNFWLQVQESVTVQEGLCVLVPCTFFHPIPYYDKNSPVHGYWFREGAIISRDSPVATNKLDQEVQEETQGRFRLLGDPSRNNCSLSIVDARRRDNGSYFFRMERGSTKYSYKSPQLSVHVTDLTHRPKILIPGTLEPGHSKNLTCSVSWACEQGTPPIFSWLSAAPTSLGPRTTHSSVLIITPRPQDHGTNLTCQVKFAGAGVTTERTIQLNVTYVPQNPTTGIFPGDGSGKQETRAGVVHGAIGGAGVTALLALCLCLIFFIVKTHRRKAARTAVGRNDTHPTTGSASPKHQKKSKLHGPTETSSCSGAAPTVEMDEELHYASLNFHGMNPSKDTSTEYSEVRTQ

Signal:Background (human wild-type CD33): 51 signal:background ratio
B1: Refmab #6 Fab fragment (Fab, V domains shown)
VH: QVQLQQPGAEVVKPGASVKMSCKASGYTFTSYYIHWIKQTPGQGLEWVGVIYPGNDDISYNQKFQGKATLTADKSSTTAYMQLSSLTSEDSAVYYCAREVRLRYFDVWGQGTTVTVSS
VL: EIVLTQSPGSLAVSPGERVTMSCKSSQSVFFSSSQKNYLAWYQQIPGQSPRLLIYWASTRESGVPDRFTGSGSGTDFTLTISSVQPEDLAIYYCHQYLSSRTFGQGTKLEIK

% WT binding [1]: 5.41 % WT binding | % WT binding [2]: 12.2 % WT binding | % WT binding [3]: 0 % WT binding | % WT binding [4]: 9.03 % WT binding | % WT binding [5]: 6.62 % WT binding | % WT binding [6]: 0 % WT binding | % WT binding [7]: 0 % WT binding | % WT binding [8]: 10.4 % WT binding | % WT binding [9]: 37.5 % WT binding | % WT binding [10]: 67.5 % WT binding | % WT binding [11]: 51.9 % WT binding | % WT binding [12]: 12.7 % WT binding | % WT binding [13]: 22.4 % WT binding | % WT binding [14]: 2 % WT binding | % WT binding [15]: 131 % WT binding | % WT binding [16]: 108 % WT binding | % WT binding [17]: 86.6 % WT binding | % WT binding [18]: 95.8 % WT binding | % WT binding [19]: 100 % WT binding | % WT binding [20]: 9.44 % WT binding | % WT binding [21]: 5.59 % WT binding | % WT binding [22]: 6.79 % WT binding | % WT binding [23]: 29.3 % WT binding | % WT binding [24]: 32.9 % WT binding
B2: Refmab #1 (antibody, human IgG1, V domains shown)
VH: EVQLVQSGAEVKKPGSSVKVSCKASGYTITDSNIHWVRQAPGQSLEWIGYIYPYNGGTDYNQKFKNRATLTVDNPTNTAYMELSSLRSEDTAFYYCVNGNPWLAYWGQGTLVTVSS
VL: DIQLTQSPSTLSASVGDRVTITCRASESLDNYGIRFLTWFQQKPGKAPKLLMYAASNQGSGVPSRFSGSGSGTEFTLTISSLQPDDFATYYCQQTKEVPWSFGQGTKVEVK
notes: also called hP67.6; Absolute Antibody Cat. No. Ab00283-10.0
